In patent US20090269810:
Numbering of substitutions follows the chain as printed.

B1: wild-type human ERp23 (protein)
chain: DRAPLTATAPQLDDEEMYSAHMPAHLRCDACRAVAYQMWQNLAKAETKLHTSNSGGRRELSELVYTDVLDRSCSRNWQDYGVREVDQVKRLTGPGLSEGPEPSISVMVTGGPWPTRLSRTCLHYLGEFGEDQIYEAHQQGRGALEALLCGGPQGACSEKVSATREEL
B2: human ERp23 Cys171Ser mutant (protein)
chain: B1 chain with C149S
B3: human ERp23 Cys95Ser mutant (protein)
chain: B1 chain with C73S
B4: human ERp23 Cys53Ser mutant (protein)
chain: B1 chain with C31S
B5: human ERp23 Cys50Ser mutant (protein)
chain: B1 chain with C28S
B6: human ERp23 Cys50-178Ser mutant (protein)
chain: B1 chain with C28S, C156S
B7: human ERp23 Cys178Ser mutant (protein)
chain: B1 chain with C156S
B8: human ERp23 Cys143Ser mutant (protein)
chain: B1 chain with C121S

target: HA-tagged mini HC (VH-CH1)

Protein | oxidation of the CH1 domain of the mini HC | percentage of the fully oxidized form of the mini HC
B1 | co-expression of wild-type human ERp23 resulted in oxidation of the CH1 domain in a portion of the HC even in the absence of LC | fully oxidizes ˜24% of the mini HC
B2 | All of the remaining single cysteine mutants had significantly reduced activity, which in most cases was similar to that observed when no ERp23 was co-expressed | –
B3 | All of the remaining single cysteine mutants had significantly reduced activity, which in most cases was similar to that observed when no ERp23 was co-expressed | –
B4 | All of the remaining single cysteine mutants had significantly reduced activity, which in most cases was similar to that observed when no ERp23 was co-expressed | –
B5 | – | showed a similar ability to oxidize the CH1 domain (i.e., 20%)
B6 | only the Cys50-178Ser mutant still retained activity | –
B7 | also showed some activity, although it was slightly weaker than that observed with wild-type ERp23 or the Cys50Ser mutant | –
B8 | All of the remaining single cysteine mutants had significantly reduced activity, which in most cases was similar to that observed when no ERp23 was co-expressed | –
